# Measurements taken from paper PMC10720262 (2023).
# Target: PfCSP full length (Plasmodium falciparum (isolate NF54), UniProt P19597)
# Experiment: ELISA AUC
# Sequence of PfCSP full length (P19597 20-375): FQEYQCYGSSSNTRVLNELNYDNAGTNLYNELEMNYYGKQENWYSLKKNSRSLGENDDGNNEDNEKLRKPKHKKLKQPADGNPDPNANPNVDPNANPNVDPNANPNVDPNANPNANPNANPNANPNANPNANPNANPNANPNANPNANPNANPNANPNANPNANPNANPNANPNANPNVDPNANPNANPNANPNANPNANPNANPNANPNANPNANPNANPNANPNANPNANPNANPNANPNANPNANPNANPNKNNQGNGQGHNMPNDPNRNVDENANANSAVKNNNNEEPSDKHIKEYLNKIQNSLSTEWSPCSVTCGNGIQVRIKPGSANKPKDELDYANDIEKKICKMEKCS
row,Binder,binding score
1,"CL-512871 (antibody, V domains shown, peptides N-terminally acetylated and C-terminally amidated) VH: QVLLVESGGGVVQPGRSLRLSCAASGFTFSNYGMHWVRQAPGKGLEWVALIRYDGINKFYADSVKGRFTISRDNSENTLYMQINSLRAEDTAMYYCAKAYNTSSDYYYGMDVWGQGTTVTVSS VL: DIQMTQSPSTLSASVGDRVTITCRASQSISTWLAWYQQKPGKAPKLLIYKASRLESGVPSRFSGSGSGTEFTLTISSLQPDDLATYYCQQFNSYWTFGQGTKVEIR",2.21
2,"CL-510373 (antibody, V domains shown, peptides N-terminally acetylated and C-terminally amidated) VH: QVQLVESGGGVVQPGRSLKLSCAASGFTFSSYGMHWVRQAPGRGLEWVSIIWYDGSNKFYSDSVQGRFTISRDDSKNTLYLQMNSLRAEDTAMYYCAMVANYTISSGAFDIWGHGTMVTVSS VL: DIQMTQSPSTLSASVGDRVTITCRASQSISNWLAWYQQKSGKAPKLLIYKASSLESGVPSRFSGSGSGTEFTLTISSLQPDDFATYFCQQYKTYWTFGQGTKVEIK",2.37
3,"CL-510418 (antibody, V domains shown, peptides N-terminally acetylated and C-terminally amidated) VH: QVQLVESGGGVVQPGQSLRLSCEASGFTFSNYGMHWVRQAPVKGLEWVAIIWFDGSYKYYADSVKGRFTVSRDNSKNTLYLQMDSLRAEDTAVYYCARARKGQRSDYYGSETSYTFDNWGQGTLVTVSS VL: DIQMTQSPSTLSASVGDRVTITCRASQSINSWLAWYQQKPGKAPKFLIYKASILESGIPSRFSGSGSGTEFTLTISSLQPDDFATYYCQQYNSYWTFGQGTKVEIK",2.46
4,"CL-444691 (antibody, V domains shown, peptides N-terminally acetylated and C-terminally amidated) VH: QVQLVESGGGVVQPGRSLRLSCAASGFTFSNYGMHWVRQAPGKGLEWVAVIWYDGSNKFYADSVKGRFTISRDNSKNTLYLQMNSLRAEDTAVYYCARDGGYNKNSGSYGWFDPWGQGTLVTVSS VL: DIQMTQSPSTLSASVGDRVTITCRASQSVSTWLAWYQQKPGKAPKLLIYKASSLESGVPSRFSGSGSGTEFTLTISSLQPDDFATYYCQQYNSYFTFGQGTRLEIK",2.3
5,"CL-438096 (antibody, V domains shown, peptides N-terminally acetylated and C-terminally amidated) VH: QVVLVESGGGVVQPGRSLRLSCEASGFIFSSRGMHWVRQTPGKGLEWVAIIWYDGSNKFYADSVKGRFTISRDNSKNTLYLQMNSLRAEDTAVYYCARSYRTSLDKKYGMDVWGQGTTVTVSS VL: DIQMTQSPSTLSASVGDRVTITCRASQSISSWLAWYQQKPGKAPKLLIYKASSLESGVPSRFSGSGSGTEFTLTISSLHPDDFATYFCQQYNSYWTFGQGTKVEIK",2.6
6,"CL-460406 (antibody, V domains shown, peptides N-terminally acetylated and C-terminally amidated) VH: QIQLVESGGGVVQPGRSLRLSCAASGFTFSNSGMHWIRQAPGKGLEWVTIIWYDGSNKYYADSVKGRFTISRDNSKNTLYLQMNSLRAEDTAIYYCARAYSSSSDDYYGMDVWGQGTTVTVSS VL: DIQMTQSPSTLSASVGDRVTITCRASQSISSWLAWYQQKPGKAPKLLIYKASSLESGVPSRFSGSGSGTDFTLTISSLQPDDFATYYCQQFYNYWTFGQGTKVEIT",2.3
7,"CL-449007 (antibody, V domains shown, peptides N-terminally acetylated and C-terminally amidated) VH: QVQVVESGGGVVQPGRSLRLSCAASGFTFSNYGMHWVRQAPGKGLEWVAIIWYDGSHKFYANSVKGRFTISRDNSKNTLFLQMNSLRAEDTAVYYCARVGNGNSDWTDAFDIWGQGTMVTVSS VL: DIQMTQSPSTLSASVGDRVTITCRASQSINSWLAWYQQKPGKAPKLLIYKASSLESGVPSRFSGSGSGTEFTLTISSLQPDDFATYYCQQYNTYWTFGQGTKVEIK",2.4
8,"CL-449869 (antibody, V domains shown, peptides N-terminally acetylated and C-terminally amidated) VH: QVQLVESGGGAVQPGRSLRLSCAASGFTFSYNGMHWVRQAPGKGLEWVAIIWYDGSNKFYADSVKGRFTISRDNSKDTLYLEMNSLRAEDTAIYYCARAWNYDDKKYSMDVWGQGTTVTVSS VL: DIQMTQSPSTLSASVGDRVTITCRASQSISSWLAWYQQKPGKAPKLLIYKASSLESGVPSRFSGSGSGTEFTLTISSLQPDDFATYYCQQYNYFWTFGQGTKVEIR",2.2
9,"CL-513809 (antibody, V domains shown, peptides N-terminally acetylated and C-terminally amidated) VH: QVQLVESGGGVVQPGRSLRLSCAASGFIFSNYGMYWVRQTPDKGLEWVALIWYDGNNKFYSDSVKGRFTVSRDNSKNTLYLQMNSLRDEDTALYYCARAGYFYGSGSSLDKWGQGTLVTVSS VL: DIQMTQSPSTLSASVGDRVSITCRASQSISIWLAWYQQKPGKAPKLLIYKASSLESGVPSRFSGSGSGTEFTLTISSLQPDDFATYYCQQYNSYWTFGQGTKVEIK",2.34
10,"CL-514174 (antibody, V domains shown, peptides N-terminally acetylated and C-terminally amidated) VH: QVQLVESGGGVVQPGRSLRLSCVASGFTFSGSGMHWVRQSPGKGLEWVAIIWYDGSNKFYADSVQGRFTISRDNSKNTLYLQMNSLRVEDTGVYYCARAYLSGNYGDKYGMDVWGQGTTVTVSS VL: DIQMTQSPSTLSASVGDRVTITCRASQSISSWLAWFQQKPGKAPKLLIYKASSLESGVPSRFSGSGSGTEFTLTINSLQPDDFATYFCQQYNYYWTFGQGTKVEIK",2.12
11,"CL-444469 (antibody, V domains shown, peptides N-terminally acetylated and C-terminally amidated) VH: QVQLVESGGGVVQPGRSLRVSCEVSGLTFSNYGMHWVRQAPGKRLEWVAIIWYDGSNKYYADSVKGRFTISRDNSKNTLYLQMNSLRAEDTAVYYCARSYGSGSRGDYYGMDVWGQGTTVTVSS VL: DIQMTQSPSTLSASVGDRVTITCRASQSISSWLAWFQQKPGKAPKLLIYKASSLESGVPSRFSGSGSGTEFTLTISSLQPDDFATYYCQQYYSYWTFGQGTKVEIK",2.4
12,"Ky15.2 (antibody, V domains shown, peptides N-terminally acetylated and C-terminally amidated) VH: QVLLVESGGGVVQPGTSLRLSCVASGFSFSTYGMHWVRQSPGKGLEWVAIIWYDGGNKFYADSVQGRFTVSRDNSKNTLYLQMNSLRAEDTAVYYCAKAYRTSLDKKYGMDVWGQGTTVTVSS VL: DIQMTQSPSTLSASVGDRVTITCRASQSIASWLAWYQQKPGKAPKLLIYKASSLESGVPSRFSGSGSGTEFTLTISSLHPDDFATYFCQQFTSYWTFGQGTKVEIK",2.4
13,"CL-510020 (antibody, V domains shown, peptides N-terminally acetylated and C-terminally amidated) VH: QVQLVESGGGVVQPGRSLRLSCAASGFTFSSFGMYWVRQAPGKGLEWVALIWYDGSNQYYADSVKGRFTISRDNSKNTLYLQMNSLRAEDTAVYYCARAGYFYGSGSPLDYWGQGTLVTVPS VL: DIQMTQSPSTLSASVGDGVTITCRASQSISSWLAWYQQKPGKAPKLLIYMASSLESGVPSRFSGSGSGTEFTLTISSLQPDDFATYYCQQYYNYWTFGQGTKVEIK",2.45
14,"CL-532151 (antibody, V domains shown, peptides N-terminally acetylated and C-terminally amidated) VH: QVQLVESGGGVVQPGGSLRLSCAASGFTFSGSGMHWVRHAPGKGLEWVAIIWYDGSNKFYADSVKGRFTISRDNSRNTLYLQMNSLRAEDTAVYYCARAYVSGNYGDKYGMDVWGQGTTVTVSS VL: DIQMTQSPSTLSASVGDRVTITCRASQSISNWLAWFQQKPGKAPKLLIYKASSLESGVPSRFSGSGSGTEFTLTINSLQPDDFATYFCQQYNYYWTFGQGTKVEIK",2.53
15,"CL-508731 (antibody, V domains shown, peptides N-terminally acetylated and C-terminally amidated) VH: QVQLVESGGGVVQPGRSLRLSCVASGFTFSNNGMHWVRQAPGKGLEWVAIIWHDGSNKFYAESVRGRFTISRDNSNNTLYLQMNSLRAEDTAVYYCARDRMFGSGSWNYFDPWGQGTLVTVSS VL: EIVLTQSPATLSLSPGERATLSCRASQSISTYLAWYQQKPGQAPRLLIYDASNRATGIPARFSGSGSGTDFTLTISSLEPEDFAVYYCQQRSYWWTFGQGTKVEIK",2.31
16,"CL-509993 (antibody, V domains shown, peptides N-terminally acetylated and C-terminally amidated) VH: QVQLVESGGGVVQPGRSLRLSCVASGFTFSNNGMHWVRQAPGKGLEWVAIIWYDGSNKYYADSVKGRFTISRDNSNNTLYLQMNSLRAEDTAVYYCARDRMFGSGTWNYFDPWGQGTLVTVSS VL: EIVLTQSPATLSLSPGERATLSCRASQSVTTYLAWYQQKPGQAPRLLIYDASNRATGIPARFSGSGSGTDFTLTISSLEPEDFAVYYCQQRSNWWTFGQGTKVEIK",2.15
17,"CL-511905 (antibody, V domains shown, peptides N-terminally acetylated and C-terminally amidated) VH: QVQLVESGGGVVQPGRSLRLSCAASGFTFSGSGMHWVRQAPGRGLEWVAIIWYDGSHKYYVDSVQGRFIISRDNSKNTLYLEMNSLRVEDTAVYYCVRAYPSGSSNDKYGMDVWGQGTTVTVSS VL: not shown",2.61
18,"CL-513094 (antibody, V domains shown, peptides N-terminally acetylated and C-terminally amidated) VH: QVQLVESGGGVVQPGRSLRLSCAASGFTFSGSGMHWVRQAPGRGLEWVAIIWYDGSHKYYVDSVQGRFIISRDNSKNTLYLEMNNLRVEDTAVYYCVRAYPSGSSNDKYGMDVWGQGTTVTVSS VL: not shown",2.14
19,"Ky315 (antibody, V domains shown, peptides N-terminally acetylated and C-terminally amidated) VH: QVQLVESGGGVVQPGRSLRLSCAASGFTLSNYGVHWVRQAPGTGLEWVALIWYDGSNKFYADSVKGRFTISRDNSMDIVYLQMNNLRAEDTALYYCVRPGIAAAGSNYYAMDVWGQGTAVTVSS VL: EIVMTQSPATLSMSPGERATLSCRASQSVGSDLAWFQQKPGQAPRLLIYGAFTRATGIPARFSGSGSGSEFTLTISSLQSEDFAVYYCQQYNRWWTFGQGTKVEMK",2.7
20,"CL-513083 (antibody, V domains shown, peptides N-terminally acetylated and C-terminally amidated) VH: QVQLVESGGGVVQPGRSLRLSCAASGFTFSNYGMHWVRQAPGRGLEWVAIIWYDGSNKYYEDSVKGRFTISRDNSKNTLYLQMNSLRAEDTAVYYCARAQWLDQRHYHYTMDVWGQGTTVTVSS VL: not shown",2.24
21,"CL-437899 (antibody, V domains shown, peptides N-terminally acetylated and C-terminally amidated) VH: QEQLVESGGGVVQPGRSLRLSCEVSGFTFSNHGLHWVRQAPGKGLEWVAIIWYDGSNKFYAESVKGRFTISRDNSKNRMYLEMNSLRVEDSAVYYCVRAYSRSSSDYKYGMDVWGQGTTVTVSS VL: DIQMTQSPSTLSASVGDRVIITCRASQSISSWLAWYQQRPGKAPELLIYKASSLETGVPSRFSGSGSGTEFTLTISSLQPDDFATYFCQQYSSYWTFGQGTKVEIK",2.4
22,"Ky224 (antibody, V domains shown, peptides N-terminally acetylated and C-terminally amidated) VH: QVQLVESGGGVVQPGRSLRLSCAASGFTFSVYGMHWVRQAPGKGLEWVAVIWYDGSNKIYADSVKGRFTISRDNSKNTLYLQMDSLSAADTAVYYCAKIGSSSFDYWGQGTLVIVSS VL: DIVMTQTPLSSPVTLGQPASISCRSSQSLVHSNGITYLSWLQQRPGQPPRLLLYEISNRFSGVPDRFSGSGTGTDFTLKISRVEAEDVGVYYCMQTTQFPITFGQGTRLEIK",2.2
23,"CL-509930 (antibody, V domains shown, peptides N-terminally acetylated and C-terminally amidated) VH: QVQLVESGGGVVQPGRSLRLSCAASGFTFSSYGMHWVRQAPGKGLEWVAIIWHDGSNKYYADSVKGRFTISRDNSKNTLYLQMNSLRAEDTAVYYCARDYSSFYFDYWGQGTLVTVSS VL: not shown",1.99
